Reference: the Human Domainome abundance scans (Beltran et al. 2025)

B1: Far upstream element-binding protein 2, residues 142 to 214; numbered along this chain, Q92945 (parent)
chain: RTSMTEEYRVPDGMVGLIIGRGGEQINKIQQDSGCKVQISPDSGGLPERSVSLTGAPESVQKAKMMLDDIVSR

Variants of: B1
Experiment: abundance fitness (aPCA) (normalised: wild type 0, dead -1); higher = more abundant; growth selection in yeast, the domain comes from the species named
Conditions: Homo sapiens

Abundance fitness, by site and new letter:
K36: T 0.005 | S -0.066 | F -0.32 | C -0.182 | E -0.036 | I -0.095 | A -0.082 | N 0.073 | V -0.001 | L -0.043 | H -0.06 | M -0.03 | Y -0.047 | W -0.283 | Q -0.034 | D 0.021 | R -0.058 | P -0.918 | G -0.431
D42: Y -0.061 | F -0.163 | W -0.203 | L -0.232 | N -0.069 | V -0.125 | E -0.007 | R -0.11 | K -0.014 | T 0.007 | A -0.013 | S -0.038 | M -0.15 | P -0.006 | G -0.097
R49: A -0.021 | K -0.092 | D -0.386 | Y -0.379 | P -0.067 | Q -0.08 | E -0.267 | M -0.127 | V -0.139 | W -0.202 | H 0.025 | N -0.104 | S -0.026
S33: T -0.006 | N -0.897 | Y -0.55 | A -0.138 | P -1.01 | W -1.09 | I -0.452 | E -0.854 | C -0.053 | D -0.916 | M -0.806 | G -0.861 | L -0.575 | H -0.854 | R -1.06 | F -0.474 | V -0.714
Q30: V -0.132 | W -0.507 | R -0.066 | S -0.078 | T -0.17 | Y -0.866
G44: K 0.019 | W -0.338 | C -0.105 | T -0.017 | I -0.339 | H -0.083 | V -0.133 | L -0.125 | F -0.194 | D 0.02 | Q 0.034 | E 0.008 | S -0.09 | R -0.071 | A -0.051 | P -0.137 | Y -0.084 | M 0.007
V37: Q -0.811 | I -0.014 | W -0.916 | T -0.484 | D -0.597 | K -0.965 | R -0.804 | Y -0.974 | A -0.372 | M -0.14 | F -0.677 | S -0.815 | C -0.144 | E -0.704 | H -0.962 | N -1.21 | G -0.905 | P -0.62
S40: V 0.025 | L 0.01 | C -0.057 | Y -0.187 | M -0.024 | T -0.059 | Q 0.009 | P -0.011 | D -0.076 | W -0.207 | I -0.069 | G -0.042 | H -0.078 | N 0.097 | E -0.013 | A 0.027 | R -0.029 | K -0.007
D32: Q 0.025 | I -0.12 | V -0.04 | R -0.085 | W -0.243 | L -0.005 | G -0.156 | H -0.072 | P -1.1 | T -0.074 | E -0.101 | M 0.019 | F -0.364 | C -0.141 | K -0.043 | A -0.006 | Y -0.167 | S -0.047
C35: W -1.19 | F -1.15 | M -0.866 | Y -0.847 | Q -0.791 | G -0.756 | H -0.917 | N -0.914 | T -0.406 | L -0.787 | V -0.209 | A -0.029 | R -0.848 | K -0.545 | P -0.658 | D -0.564 | I -0.786 | E -0.563
L46: P -0.145 | T -0.002 | V -0.104 | G 0.07 | Y -0.153 | E -0.037 | I -0.145
